Measured values taken from patent US10184115B2, “Mutated cellobiose dehydrogenase with increased substrate specificity” (DIRECTSENS GMBH, priority 2012, dated 2019).

What was measured:
[1] = substrate: OC[C@H]1OC(O)[C@H](O)[C@@H](O)[C@@H]1O; experiment: Steady-state kinetics, DCIP assay: M. thermophilum CDH W316L; format: biochemical, Myriococcum thermophilum; conditions: other: apparent, pH 4.5, 30° C., ~ values only estimated by non linear regression
Experimental: (§1) Enzyme activity was assayed at 30° C. using either the DCIP (Karapetyan et al., 2005 Journal of Biotechnology 121: 34-48) or cytochrome c (Canevascini et al., 1991, European Journal of Biochemistry 198: 43-52) as electron acceptor. […] Stock solutions of carbohydrates used for kinetic measurements were prepared in the respective buffer and allowed to stand overnight for mutarotation, while stock solutions of electron acceptors were prepared in water and immediately used. The reaction stoichiometry is 1 for the two-electron acceptor DCIP (1 mole of DCIP reduced per mole of carbohydrate oxidized), but 2 for the one-electron acceptor cytochrome c. Kinetic constants were calculated by fitting the observed data to the Henri-Michaelis-Menten equation or to the adapted model for substrate inhibition using nonlinear least-squares regression and the program SigmaPlot (Systat Software, San Jose, Calif., USA). […]
(§2) Recombinant wild-type CDH as well as variants were produced in 1 L baffled flasks. […] Increase in activity was monitored using the DCIP and the cytochrome c enzyme assays. […]
(§3) Enzymes were purified to homogeneity in a two-step purification. […] Fractions were tested for CDH activity and pooled according to the highest Reinheitszahl (RZ, calculated from the absorbance ratio 420 nm/280 nm). […]

[2] = substrate: OC[C@H]1OC(O)[C@H](O)[C@@H](O)[C@@H]1O; experiment: Steady-state kinetics, DCIP assay: M. thermophilum CDH W316R; format: biochemical, Myriococcum thermophilum; conditions: other: apparent, pH 4.5, 30° C., ~ values only estimated by non linear regression
Experimental: as §1, §2, §3

[3] = substrate: OC[C@H]1OC(O)[C@H](O)[C@@H](O)[C@@H]1O; experiment: Steady-state kinetics, DCIP assay: M. thermophilum CDH R622N; format: biochemical, Myriococcum thermophilum; conditions: other: apparent, pH 4.5, 30° C., ~ values only estimated by non linear regression
Experimental: as §1, §2, §3

[4] = substrate: OC[C@H]1OC(O)[C@H](O)[C@@H](O)[C@@H]1O; experiment: Steady-state kinetics, DCIP assay: C. thermophilus flavodehydrogenase domain C310Y; format: biochemical, Corynascus thermophilus; conditions: other: apparent, pH 5.5, 30° C.
Experimental: (§4) Enzyme activity was assayed at 30° C. using either the DCIP (Karapetyan et al., 2005 Journal of Biotechnology 121: 34-48) or cytochrome c (Canevascini et al., 1991, European Journal of Biochemistry 198: 43-52) as electron acceptor. […] Stock solutions of carbohydrates used for kinetic measurements were prepared in the respective buffer and allowed to stand overnight for mutarotation, while stock solutions of electron acceptors were prepared in water and immediately used. The reaction stoichiometry is 1 for the two-electron acceptor DCIP (1 mole of DCIP reduced per mole of carbohydrate oxidized), but 2 for the one-electron acceptor cytochrome c. Kinetic constants were calculated by fitting the observed data to the Henri-Michaelis-Menten equation or to the adapted model for substrate inhibition using nonlinear least-squares regression and the program SigmaPlot (Systat Software, San Jose, Calif., USA).
(§5) Recombinant wild-type CDH as well as variants were produced in 1 L baffled flasks. Precultures were grown overnight in 30 mL of YPD medium at 30° C. and 120 rpm. After approximately 18 hours the precultures were transferred into 1 L baffled flasks containing 200 mL BMGY medium without methanol. Induction with methanol was started immediately using a multichannel peristaltic pump (Minipuls Evolution, Gilson, Middleton, Wis., USA). Each flask was supplied eight times a day with methanol yielding a total concentration of 2% (v/v) methanol per day. Increase in activity was monitored using the DCIP and the cytochrome c enzyme assays. Cultivation was stopped at day five of methanol induction, cells removed by centrifugation (4000 rpm, 20 min) and the supernatant set to a final ammonium sulfate concentration of 20%.
(§6) Enzymes were purified to homogeneity in a two-step purification. The sample was loaded on a 20 mL PHE Sepharose FF column (HR26/20) equilibrated with 50 mM Na-acetate buffer pH 5.5 containing 20% ammonium sulfate. Proteins were eluted by increasing the concentration of the elution buffer (50 mM Na-acetate buffer pH 5.5) from 0 to 100% in 5 column volumes and fractions containing CDH activity were pooled. After diafiltration with a polyethersulfone flat-stack cross flow module with a cut-off of 10 kDa (Viva Flow 50, Sartorius, Göttingen, Germany) until conductivity of 5 mS cm^−1 in 20 mM Na-acetate pH 5.5 the samples were loaded on a 20 mL Q-Source column (HR26/20) equilibrated with a 20 mM Na-acetate buffer pH 5.5. CDH was eluted by increasing the concentration of the elution buffer (50 mM Na-acetate buffer pH 5.5 containing 0.5 M NaCl) from 0 to 100% in 50 column volumes. Fractions were tested for CDH activity and pooled according to the highest Reinheitszahl (RZ, calculated from the absorbance ratio 420 nm/280 nm). Purified enzymes were concentrated and diafiltered in 50 mM citrate buffer, pH 5.5, aliquoted and kept at 4° C. for further use.

[5] = substrate: OC[C@H]1O[C@H](O[C@H]2[C@H](O)[C@@H](O)C(O)O[C@@H]2CO)[C@H](O)[C@@H](O)[C@@H]1O; experiment: as above; format: biochemical, Corynascus thermophilus; conditions: other: apparent, pH 5.5, 30° C.
Experimental: as §4, §5, §6

[6] = substrate: OC[C@H]1OC(O)[C@H](O)[C@@H](O)[C@@H]1O; experiment: purified protein, by the assay type; conditions: other: apparent, wt, DCIP assay, pH 5.5, 30° C.
[7] = substrate: OC[C@H]1O[C@H](O[C@H]2[C@H](O)[C@@H](O)C(O)O[C@@H]2CO)[C@H](O)[C@@H](O)[C@@H]1O; experiment: purified protein, by the assay type; conditions: other: apparent, wt, DCIP assay, pH 5.5, 30° C.
Experimental: as §4, §6

B1: Myriococcum thermophilum cellobiose dehydrogenase (CDH, SEQ ID NO: 1) variant W316L (Thermothelomyces myriococcoides; W316L) (protein)
chain: QNNVPNTFTDPDSGITFNTWGLDEDSPQTQGGFTFGVALPSDALTTDASEFIGYLKCARNDESGWCGISLGGPMTNSLLITAWPHEDTVYTSLRFATGYAMPDVYEGDAEITQVSSSVNSTHFSLIFRCKNCLQWSHGGSSGGASTSGGVLVLGWVQAFDDPGNPTCPEQITLQQHDNGMGIWGAQLNTDAASPSYTDWAAQATKTVTGDCEGPTETSVVGVPVPTGVSFDYIVVGGGAGGIPAADKLSEAGKSVLLIEKGFASTANTGGTLGPEWLEGHDLTRFDVPGLCNQILVDSKGIACEDTDQMAGCVLGGGTAVNAGLWFKPYSLDWDYLFPDGWKYNDVQPAINRALSRIPGTDAPSTDGKRYYQEGFEVLSKGLAAGGWTSVTANNAPDKKNRTFAHAPFMFAGGERNGPLGTYFQTAKKRNNFDVWLNTSVKRVIREGGHITGVEVEPFRDGGYEGIVPVTKVTGRVILSAGTFGSAKILLRSGIGPEDQLEVVAASEKDGPTMIGNSSWINLPVGYNLDDHLNTDTVISHPDVVFYDFYEAWDDPIESDKNSYLESRTGILAQAAPNIGPMFWEEIVGADGIVRQLQWTARVEGSLGAPNGHTMTMSQYLGRGATSRGRMTITPSLTTIVSDVPYLKDPNDKEAVIQGIINLQNALQNVANLTWLFPNSTITPREYVESMVVSPSNRRSNHWMGTNKLGTDDGRKGGSAVVDLDTRVYGTDNLFVIDASIFPGVPTTNPTSYIVVAAEHASSRILALPDLEPVPKYGQCGGREWTGSFVCADGSTCEYQNEWYSQCL
- kcat [1]: 9.9 s⁻¹
- kcat/Km [1]: 2.8 M⁻¹ s⁻¹

B2: Myriococcum thermophilum cellobiose dehydrogenase (CDH, SEQ ID NO: 1) variant W316R (Thermothelomyces myriococcoides; W316R) (protein)
chain: QNNVPNTFTDPDSGITFNTWGLDEDSPQTQGGFTFGVALPSDALTTDASEFIGYLKCARNDESGWCGISLGGPMTNSLLITAWPHEDTVYTSLRFATGYAMPDVYEGDAEITQVSSSVNSTHFSLIFRCKNCLQWSHGGSSGGASTSGGVLVLGWVQAFDDPGNPTCPEQITLQQHDNGMGIWGAQLNTDAASPSYTDWAAQATKTVTGDCEGPTETSVVGVPVPTGVSFDYIVVGGGAGGIPAADKLSEAGKSVLLIEKGFASTANTGGTLGPEWLEGHDLTRFDVPGLCNQIRVDSKGIACEDTDQMAGCVLGGGTAVNAGLWFKPYSLDWDYLFPDGWKYNDVQPAINRALSRIPGTDAPSTDGKRYYQEGFEVLSKGLAAGGWTSVTANNAPDKKNRTFAHAPFMFAGGERNGPLGTYFQTAKKRNNFDVWLNTSVKRVIREGGHITGVEVEPFRDGGYEGIVPVTKVTGRVILSAGTFGSAKILLRSGIGPEDQLEVVAASEKDGPTMIGNSSWINLPVGYNLDDHLNTDTVISHPDVVFYDFYEAWDDPIESDKNSYLESRTGILAQAAPNIGPMFWEEIVGADGIVRQLQWTARVEGSLGAPNGHTMTMSQYLGRGATSRGRMTITPSLTTIVSDVPYLKDPNDKEAVIQGIINLQNALQNVANLTWLFPNSTITPREYVESMVVSPSNRRSNHWMGTNKLGTDDGRKGGSAVVDLDTRVYGTDNLFVIDASIFPGVPTTNPTSYIVVAAEHASSRILALPDLEPVPKYGQCGGREWTGSFVCADGSTCEYQNEWYSQCL
- kcat [2]: 1.2 s⁻¹
- kcat/Km [2]: 0.34 M⁻¹ s⁻¹

B3: Myriococcum thermophilum cellobiose dehydrogenase (CDH, SEQ ID NO: 1) variant R622N (Thermothelomyces myriococcoides; R622N) (protein)
chain: QNNVPNTFTDPDSGITFNTWGLDEDSPQTQGGFTFGVALPSDALTTDASEFIGYLKCARNDESGWCGISLGGPMTNSLLITAWPHEDTVYTSLRFATGYAMPDVYEGDAEITQVSSSVNSTHFSLIFRCKNCLQWSHGGSSGGASTSGGVLVLGWVQAFDDPGNPTCPEQITLQQHDNGMGIWGAQLNTDAASPSYTDWAAQATKTVTGDCEGPTETSVVGVPVPTGVSFDYIVVGGGAGGIPAADKLSEAGKSVLLIEKGFASTANTGGTLGPEWLEGHDLTRFDVPGLCNQIWVDSKGIACEDTDQMAGCVLGGGTAVNAGLWFKPYSLDWDYLFPDGWKYNDVQPAINRALSRIPGTDAPSTDGKRYYQEGFEVLSKGLAAGGWTSVTANNAPDKKNRTFAHAPFMFAGGERNGPLGTYFQTAKKRNNFDVWLNTSVKRVIREGGHITGVEVEPFRDGGYEGIVPVTKVTGRVILSAGTFGSAKILLRSGIGPEDQLEVVAASEKDGPTMIGNSSWINLPVGYNLDDHLNTDTVISHPDVVFYDFYEAWDDPIESDKNSYLESRTGILAQAAPNIGPMFWEEIVGADGIVRQLQWTANVEGSLGAPNGHTMTMSQYLGRGATSRGRMTITPSLTTIVSDVPYLKDPNDKEAVIQGIINLQNALQNVANLTWLFPNSTITPREYVESMVVSPSNRRSNHWMGTNKLGTDDGRKGGSAVVDLDTRVYGTDNLFVIDASIFPGVPTTNPTSYIVVAAEHASSRILALPDLEPVPKYGQCGGREWTGSFVCADGSTCEYQNEWYSQCL
- kcat [3]: 13.1 s⁻¹
- kcat/Km [3]: 6.0 M⁻¹ s⁻¹

B4: Corynascus thermophilus CDH flavodehydrogenase domain (amino acids 249-787 of SEQ ID NO: 7) variant C310Y (C310YDH) (Thermothelomyces fergusii; C310Y) (protein)
chain: YDYIVVGAGAGGITVADKLSEAGHKVLLIEKGPPSTGLWNGTMKPEWLEGTDLTRFDVPGLYNQIWVDSAGIACTDTDQMAGCVLGGGTAVNAGLWWKPHPADWDDNFPHGWKSSDLADATERVFSRIPGTWHPSQDGKLYRQEGFEVISQGLANAGWREVDANQEPSEKNRTYSHSVFMFSGGERGGPLATYLASAAQRSNFNLWVNTSVRRAIRTGPRVSGVELECLADGGFNGTVNLKEGGGVIFSAGAFGSAKLLLRSGIGPEDQLEIVASSKDGETFISKNDWIKLPVGHNLIDHLNTDLIITHPDVVFYDFYAAWDNPITEDKEAYLNSRSGILAQAAPNIGPLMWEEVTPSDGITRQFQWTCRVEGDSSKTNSTHAMTLSQYLGRGVVSRGRMGITSGLTTTVAEHPYLHNDGDLEAVIQGIQNVVDALSQVPDLEWVLPPPNTTVEEYVNSLIVSPANRRANHWMGTAKMGLDDGRSGGSAVVDLNTKVYGTDNLFVVDASIFPGMSTGNPSAMIVIVAEQAAQRILSLRY
- Km [4]: 37.1 mM
- kcat [4]: 17.6 s⁻¹
- kcat/Km [4]: 474.4 M⁻¹ s⁻¹
- Km [5]: 51.86 mM
- kcat [5]: 0.69 s⁻¹
- kcat/Km [5]: 13.3 M⁻¹ s⁻¹

B5: Corynascus thermophilus cellobiose dehydrogenase (CDH), recombinant wild type, SEQ ID NO: 7 (Thermothelomyces fergusii) (protein)
chain: QMTEGTYTHEATGITFKTWTPSDGSTFTFGLALPGDALTNDATEYIGLLRCQITDPSSPGYCGISHGQSGQMTQALLLVAWASEDVVYTSFRYATGYTLPELYTGDAKLTQIASSVSGDSFEVLFRCENCFSWDQNGATGSVSTSNGALVLGYAASKSGLTGATCPDTAEFGFHNNGFGQWGAVLEGATSDSYEEWAQLATITPPTTCDGNGPGDKVCVPAPEDTYDYIVVGAGAGGITVADKLSEAGHKVLLIEKGPPSTGLWNGTMKPEWLEGTDLTRFDVPGLCNQIWVDSAGIACTDTDQMAGCVLGGGTAVNAGLWWKPHPADWDDNFPHGWKSSDLADATERVFSRIPGTWHPSQDGKLYRQEGFEVISQGLANAGWREVDANQEPSEKNRTYSHSVFMFSGGERGGPLATYLASAAQRSNFNLWVNTSVRRAIRTGPRVSGVELECLADGGFNGTVNLKEGGGVIFSAGAFGSAKLLLRSGIGPEDQLEIVASSKDGETFISKNDWIKLPVGHNLIDHLNTDLIITHPDVVFYDFYAAWDNPITEDKEAYLNSRSGILAQAAPNIGPLMWEEVTPSDGITRQFQWTCRVEGDSSKTNSTHAMTLSQYLGRGVVSRGRMGITSGLTTTVAEHPYLHNDGDLEAVIQGIQNVVDALSQVPDLEWVLPPPNTTVEEYVNSLIVSPANRRANHWMGTAKMGLDDGRSGGSAVVDLNTKVYGTDNLFVVDASIFPGMSTGNPSAMIVIVAEQAAQRILSLRY
- Km [6]: 86.7 mM
- Km [7]: 4.08 mM
- kcat [7]: 0.50 s⁻¹
- kcat/Km [7]: 120 M⁻¹ s⁻¹
